Assay results reported in the Immune Epitope Database (IEDB).

Key:
Assay in all cases: IEDB peptide-MHC binding, purified MHC/competitive/radioactivity; filed as Kd, often an IC50 or EC50 that approximates it; ≥ and ≤ were set here for values at or beyond the usual limits of such assays
HLA-A*02:02 = target: HLA-A*02:02
HLA-A*02:03 = target: HLA-A*02:03
HLA-A*02:06 = target: HLA-A*02:06
HLA-A*03:01 = target: HLA-A*03:01
HLA-A*11:01 = target: HLA-A*11:01
HLA-A*31:01 = target: HLA-A*31:01
HLA-A*33:01 = target: HLA-A*33:01
HLA-A*68:01 = target: HLA-A*68:01
[1] = source organism: Vaccinia virus WR
[2] = source organism: Dengue virus 4 Philippines/H241/1956
[3] = source organism: Vaccinia virus Copenhagen
[4] = source organism: SARS coronavirus Tor2
[5] = source organism: Mammarenavirus tacaribeense
[6] = source organism: Lymphocytic choriomeningitis virus (strain Armstrong)
[7] = source organism: Lassa virus Josiah
[8] = source organism: Mammarenavirus guanaritoense

NVIGLIVIL
Kd (HLA-A*02:02; [1]): 84.9 nM | Kd (HLA-A*02:03; [1]): 2400 nM | Kd (HLA-A*02:06; [1]): 15.1 nM

FTILEYLYIM
Kd (HLA-A*02:02; [1]): 355 nM | Kd (HLA-A*02:03; [1]): 3200 nM | Kd (HLA-A*02:06; [1]): 40.5 nM

YIALCKVTV
Kd (HLA-A*02:02; [1]): 12.2 nM | Kd (HLA-A*02:03; [1]): 24 nM | Kd (HLA-A*02:06; [1]): 18.8 nM

NQAAVLMGL
Kd (HLA-A*02:06; [2]): 6.98 nM

ALTDVEKRIL
Kd (HLA-A*02:02; [1]): 96.9 nM | Kd (HLA-A*02:03; [1]): 127 nM | Kd (HLA-A*02:06; [1]): 934 nM

SIVCIVAAV
Kd (HLA-A*02:02; [1]): 3.91 nM | Kd (HLA-A*02:03; [1]): 2.82 nM | Kd (HLA-A*02:06; [1]): 3.54 nM

TINVNSLAL
Kd (HLA-A*02:02; [1]): 1980 nM | Kd (HLA-A*02:03; [1]): 1540 nM | Kd (HLA-A*02:06; [1]): 2180 nM

NITHTNITTL
Kd (HLA-A*02:02; [1]): 10400 nM | Kd (HLA-A*02:03; [1]): 5020 nM | Kd (HLA-A*02:06; [1]): 8170 nM

ELEKCTSEI
Kd (HLA-A*02:02; [1]): ≥ 21100 nM | Kd (HLA-A*02:03; [1]): ≥ 56000 nM | Kd (HLA-A*02:06; [1]): ≥ 57900 nM

LIAGIILLIL
Kd (HLA-A*02:02; [3]): 141 nM | Kd (HLA-A*02:03; [3]): 680 nM | Kd (HLA-A*02:06; [3]): 345 nM

VIIMAINVFT
Kd (HLA-A*02:02; [1]): 320 nM | Kd (HLA-A*02:03; [1]): 820 nM | Kd (HLA-A*02:06; [1]): 674 nM

QIMECSRML
Kd (HLA-A*02:02; [1]): 620 nM | Kd (HLA-A*02:03; [1]): 1380 nM | Kd (HLA-A*02:06; [1]): 948 nM

FLNRFTTTL
Kd (HLA-A*02:02; [4]): 0.659 nM | Kd (HLA-A*02:03; [4]): 1.02 nM | Kd (HLA-A*02:06; [4]): 58.1 nM

LAYYNSCMLT
Kd (HLA-A*02:02; [1]): 12.1 nM | Kd (HLA-A*02:03; [1]): 15.9 nM | Kd (HLA-A*02:06; [1]): 86.2 nM

STQSVLCVK
Kd (HLA-A*03:01; [1]): 149 nM | Kd (HLA-A*11:01; [1]): 0.756 nM | Kd (HLA-A*31:01; [1]): 115 nM | Kd (HLA-A*33:01; [1]): 15600 nM | Kd (HLA-A*68:01; [1]): 3.14 nM

QYIHCFRKPH
Kd (HLA-A*03:01; [5]): ≥ 70000 nM | Kd (HLA-A*11:01; [5]): ≥ 69700 nM | Kd (HLA-A*31:01; [5]): 386 nM | Kd (HLA-A*33:01; [5]): 140 nM | Kd (HLA-A*68:01; [5]): ≥ 57300 nM

EIDVSEVKT
Kd (HLA-A*02:02; [1]): ≥ 46000 nM | Kd (HLA-A*02:03; [1]): ≥ 78100 nM | Kd (HLA-A*02:06; [1]): ≥ 77100 nM

SLSNLDFRL
Kd (HLA-A*02:02; [1]): 1310 nM | Kd (HLA-A*02:03; [1]): 1760 nM | Kd (HLA-A*02:06; [1]): 1380 nM

FSLGAAVKA
Kd (HLA-A*02:02; [6]): 6460 nM | Kd (HLA-A*02:03; [6]): 13300 nM | Kd (HLA-A*02:06; [6]): 327 nM

PFKVINLPK
Kd (HLA-A*03:01; [1]): 9490 nM | Kd (HLA-A*11:01; [1]): 665 nM | Kd (HLA-A*31:01; [1]): 6360 nM | Kd (HLA-A*33:01; [1]): ≥ 77700 nM | Kd (HLA-A*68:01; [1]): 15500 nM

NTISGNIYSA
Kd (HLA-A*02:02; [1]): 269 nM | Kd (HLA-A*02:03; [1]): 314 nM | Kd (HLA-A*02:06; [1]): 393 nM

PMSRLFMDEI
Kd (HLA-A*02:02; [1]): 1930 nM | Kd (HLA-A*02:03; [1]): 726 nM | Kd (HLA-A*02:06; [1]): 4370 nM

IISEEYLSK
Kd (HLA-A*03:01; [1]): 103 nM | Kd (HLA-A*11:01; [1]): 27 nM | Kd (HLA-A*31:01; [1]): 10100 nM | Kd (HLA-A*33:01; [1]): ≥ 59300 nM | Kd (HLA-A*68:01; [1]): 7850 nM

TIPIGMQFDK
Kd (HLA-A*03:01; [1]): 6040 nM | Kd (HLA-A*11:01; [1]): 4.02 nM | Kd (HLA-A*31:01; [1]): 17400 nM | Kd (HLA-A*33:01; [1]): ≥ 70000 nM | Kd (HLA-A*68:01; [1]): 38.1 nM

DFDNLIGVR
Kd (HLA-A*03:01; [1]): ≥ 78000 nM | Kd (HLA-A*11:01; [1]): ≥ 77900 nM | Kd (HLA-A*31:01; [1]): 8030 nM | Kd (HLA-A*33:01; [1]): 87.1 nM | Kd (HLA-A*68:01; [1]): 10700 nM

GVVRVWDVK
Kd (HLA-A*03:01; [7]): 5790 nM | Kd (HLA-A*11:01; [7]): 11.1 nM | Kd (HLA-A*31:01; [7]): ≥ 45000 nM | Kd (HLA-A*33:01; [7]): ≥ 24200 nM | Kd (HLA-A*68:01; [7]): 129 nM

EMQLKIDKLT
Kd (HLA-A*02:02; [1]): 9660 nM | Kd (HLA-A*02:03; [1]): 6820 nM | Kd (HLA-A*02:06; [1]): ≥ 69800 nM

DIIDLLLPST
Kd (HLA-A*02:02; [1]): 14500 nM | Kd (HLA-A*02:03; [1]): 6590 nM | Kd (HLA-A*02:06; [1]): 284 nM

KTAVNMLTH
Kd (HLA-A*03:01; [8]): 10.1 nM | Kd (HLA-A*11:01; [8]): 216 nM | Kd (HLA-A*31:01; [8]): 45.3 nM | Kd (HLA-A*33:01; [8]): ≥ 77700 nM | Kd (HLA-A*68:01; [8]): ≥ 44800 nM

KINNNRIVAM
Kd (HLA-A*02:02; [1]): 9120 nM | Kd (HLA-A*02:03; [1]): 1300 nM | Kd (HLA-A*02:06; [1]): 3190 nM

ATCALVSDCA
Kd (HLA-A*02:02; [1]): ≥ 34700 nM | Kd (HLA-A*02:03; [1]): ≥ 23400 nM | Kd (HLA-A*02:06; [1]): 9140 nM

NLLEQLIENI
Kd (HLA-A*02:02; [1]): 836 nM | Kd (HLA-A*02:03; [1]): 1440 nM | Kd (HLA-A*02:06; [1]): 396 nM

AAKYVEHDPR
Kd (HLA-A*03:01; [1]): ≥ 31000 nM | Kd (HLA-A*11:01; [1]): ≥ 39000 nM | Kd (HLA-A*31:01; [1]): 171 nM | Kd (HLA-A*33:01; [1]): 1480 nM | Kd (HLA-A*68:01; [1]): 251 nM

NLETYTRPEI
Kd (HLA-A*02:02; [1]): 539 nM | Kd (HLA-A*02:03; [1]): 1500 nM | Kd (HLA-A*02:06; [1]): 636 nM

NILGGVLHT
Kd (HLA-A*02:02; [1]): ≥ 77800 nM | Kd (HLA-A*02:03; [1]): ≥ 20600 nM | Kd (HLA-A*02:06; [1]): 9960 nM

ITDMINASLK
Kd (HLA-A*03:01; [1]): 151 nM | Kd (HLA-A*11:01; [1]): 81.2 nM | Kd (HLA-A*31:01; [1]): 10600 nM | Kd (HLA-A*33:01; [1]): ≥ 27300 nM | Kd (HLA-A*68:01; [1]): 76.3 nM

GIKGLDERFV
Kd (HLA-A*02:02; [1]): 6190 nM | Kd (HLA-A*02:03; [1]): 844 nM | Kd (HLA-A*02:06; [1]): 940 nM

SLGLILLKMV
Kd (HLA-A*02:03; [2]): 58.2 nM

PLHIVCSKTV
Kd (HLA-A*02:02; [1]): ≥ 34500 nM | Kd (HLA-A*02:03; [1]): 5270 nM | Kd (HLA-A*02:06; [1]): ≥ 27000 nM

KIDILQMREI
Kd (HLA-A*02:02; [1]): 1280 nM | Kd (HLA-A*02:03; [1]): 414 nM | Kd (HLA-A*02:06; [1]): 875 nM

YVKSPKFSK
Kd (HLA-A*03:01; [4]): 6980 nM | Kd (HLA-A*11:01; [4]): 259 nM | Kd (HLA-A*31:01; [4]): 2320 nM | Kd (HLA-A*33:01; [4]): 7520 nM | Kd (HLA-A*68:01; [4]): 65.5 nM

VLNRHAITMY
Kd (HLA-A*03:01; [1]): 94.4 nM | Kd (HLA-A*11:01; [1]): 966 nM | Kd (HLA-A*31:01; [1]): ≥ 70000 nM | Kd (HLA-A*33:01; [1]): ≥ 70000 nM | Kd (HLA-A*68:01; [1]): 16800 nM
